One block for each binder: values may come before it.
Experiments:
Experiment in all cases: BioID2 proximity labelling, HEK293 cells
CBP = molecular target: T1, CBP (human, UniProt Q92793 2-2442)
T1 construct: Endogenous prey identified by mass spectrometry; also called CBP/p300 (with p300)

p300 = molecular target: T2, p300 (human, UniProt Q09472 2-2414)
T2 construct: Endogenous prey identified by mass spectrometry; also called EP300; CBP/p300 (with CBP)

[1] = molecular target: T3, SUZ12 tagged with BirA-FLAG (human; Aquifex aeolicus, UniProt Q15022 1-739)
T3 construct: not shown: BioID2 biotin ligase (BirA from Aquifex aeolicus) tag
T3 sequence (Q15022 whole entry): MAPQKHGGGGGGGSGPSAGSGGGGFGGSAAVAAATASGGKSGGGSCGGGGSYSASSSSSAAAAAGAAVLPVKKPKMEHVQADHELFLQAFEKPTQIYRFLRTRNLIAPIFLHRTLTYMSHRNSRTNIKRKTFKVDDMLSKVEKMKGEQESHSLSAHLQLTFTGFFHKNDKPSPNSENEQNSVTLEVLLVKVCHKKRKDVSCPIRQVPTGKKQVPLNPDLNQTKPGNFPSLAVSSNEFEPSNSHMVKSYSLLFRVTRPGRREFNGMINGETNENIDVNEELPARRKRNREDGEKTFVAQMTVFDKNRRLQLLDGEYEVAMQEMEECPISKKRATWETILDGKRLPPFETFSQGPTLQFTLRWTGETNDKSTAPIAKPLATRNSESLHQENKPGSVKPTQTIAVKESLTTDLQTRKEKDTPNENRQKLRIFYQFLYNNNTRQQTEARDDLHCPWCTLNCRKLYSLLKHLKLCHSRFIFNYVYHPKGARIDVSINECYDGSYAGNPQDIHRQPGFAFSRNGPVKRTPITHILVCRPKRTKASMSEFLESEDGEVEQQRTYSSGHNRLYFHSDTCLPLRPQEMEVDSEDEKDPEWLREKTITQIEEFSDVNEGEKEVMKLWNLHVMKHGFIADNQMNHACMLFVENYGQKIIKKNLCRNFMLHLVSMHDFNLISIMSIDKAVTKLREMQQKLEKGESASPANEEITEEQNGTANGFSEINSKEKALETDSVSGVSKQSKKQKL

[2] = molecular target: T4, SRF (Serum Response Factor) tagged with BirA-FLAG (human; Aquifex aeolicus, UniProt P11831 1-508)
T4 construct: not shown: BioID2 biotin ligase (BirA from Aquifex aeolicus) tag
T4 sequence (looked up): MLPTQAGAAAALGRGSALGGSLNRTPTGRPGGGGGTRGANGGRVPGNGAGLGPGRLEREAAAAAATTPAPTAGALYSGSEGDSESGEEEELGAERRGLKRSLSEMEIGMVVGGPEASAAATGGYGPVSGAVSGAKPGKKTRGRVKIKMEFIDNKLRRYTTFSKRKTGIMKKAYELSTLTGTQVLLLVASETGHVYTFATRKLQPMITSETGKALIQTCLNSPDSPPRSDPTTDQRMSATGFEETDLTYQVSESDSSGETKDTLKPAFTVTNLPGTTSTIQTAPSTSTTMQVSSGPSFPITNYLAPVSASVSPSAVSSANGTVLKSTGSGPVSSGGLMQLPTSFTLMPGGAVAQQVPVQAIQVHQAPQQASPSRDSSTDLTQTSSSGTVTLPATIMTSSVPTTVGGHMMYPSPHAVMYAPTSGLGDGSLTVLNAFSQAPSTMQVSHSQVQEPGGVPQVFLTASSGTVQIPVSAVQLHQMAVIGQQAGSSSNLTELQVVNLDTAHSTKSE

T1 sequence (Q92793 2-2442 limits assumed): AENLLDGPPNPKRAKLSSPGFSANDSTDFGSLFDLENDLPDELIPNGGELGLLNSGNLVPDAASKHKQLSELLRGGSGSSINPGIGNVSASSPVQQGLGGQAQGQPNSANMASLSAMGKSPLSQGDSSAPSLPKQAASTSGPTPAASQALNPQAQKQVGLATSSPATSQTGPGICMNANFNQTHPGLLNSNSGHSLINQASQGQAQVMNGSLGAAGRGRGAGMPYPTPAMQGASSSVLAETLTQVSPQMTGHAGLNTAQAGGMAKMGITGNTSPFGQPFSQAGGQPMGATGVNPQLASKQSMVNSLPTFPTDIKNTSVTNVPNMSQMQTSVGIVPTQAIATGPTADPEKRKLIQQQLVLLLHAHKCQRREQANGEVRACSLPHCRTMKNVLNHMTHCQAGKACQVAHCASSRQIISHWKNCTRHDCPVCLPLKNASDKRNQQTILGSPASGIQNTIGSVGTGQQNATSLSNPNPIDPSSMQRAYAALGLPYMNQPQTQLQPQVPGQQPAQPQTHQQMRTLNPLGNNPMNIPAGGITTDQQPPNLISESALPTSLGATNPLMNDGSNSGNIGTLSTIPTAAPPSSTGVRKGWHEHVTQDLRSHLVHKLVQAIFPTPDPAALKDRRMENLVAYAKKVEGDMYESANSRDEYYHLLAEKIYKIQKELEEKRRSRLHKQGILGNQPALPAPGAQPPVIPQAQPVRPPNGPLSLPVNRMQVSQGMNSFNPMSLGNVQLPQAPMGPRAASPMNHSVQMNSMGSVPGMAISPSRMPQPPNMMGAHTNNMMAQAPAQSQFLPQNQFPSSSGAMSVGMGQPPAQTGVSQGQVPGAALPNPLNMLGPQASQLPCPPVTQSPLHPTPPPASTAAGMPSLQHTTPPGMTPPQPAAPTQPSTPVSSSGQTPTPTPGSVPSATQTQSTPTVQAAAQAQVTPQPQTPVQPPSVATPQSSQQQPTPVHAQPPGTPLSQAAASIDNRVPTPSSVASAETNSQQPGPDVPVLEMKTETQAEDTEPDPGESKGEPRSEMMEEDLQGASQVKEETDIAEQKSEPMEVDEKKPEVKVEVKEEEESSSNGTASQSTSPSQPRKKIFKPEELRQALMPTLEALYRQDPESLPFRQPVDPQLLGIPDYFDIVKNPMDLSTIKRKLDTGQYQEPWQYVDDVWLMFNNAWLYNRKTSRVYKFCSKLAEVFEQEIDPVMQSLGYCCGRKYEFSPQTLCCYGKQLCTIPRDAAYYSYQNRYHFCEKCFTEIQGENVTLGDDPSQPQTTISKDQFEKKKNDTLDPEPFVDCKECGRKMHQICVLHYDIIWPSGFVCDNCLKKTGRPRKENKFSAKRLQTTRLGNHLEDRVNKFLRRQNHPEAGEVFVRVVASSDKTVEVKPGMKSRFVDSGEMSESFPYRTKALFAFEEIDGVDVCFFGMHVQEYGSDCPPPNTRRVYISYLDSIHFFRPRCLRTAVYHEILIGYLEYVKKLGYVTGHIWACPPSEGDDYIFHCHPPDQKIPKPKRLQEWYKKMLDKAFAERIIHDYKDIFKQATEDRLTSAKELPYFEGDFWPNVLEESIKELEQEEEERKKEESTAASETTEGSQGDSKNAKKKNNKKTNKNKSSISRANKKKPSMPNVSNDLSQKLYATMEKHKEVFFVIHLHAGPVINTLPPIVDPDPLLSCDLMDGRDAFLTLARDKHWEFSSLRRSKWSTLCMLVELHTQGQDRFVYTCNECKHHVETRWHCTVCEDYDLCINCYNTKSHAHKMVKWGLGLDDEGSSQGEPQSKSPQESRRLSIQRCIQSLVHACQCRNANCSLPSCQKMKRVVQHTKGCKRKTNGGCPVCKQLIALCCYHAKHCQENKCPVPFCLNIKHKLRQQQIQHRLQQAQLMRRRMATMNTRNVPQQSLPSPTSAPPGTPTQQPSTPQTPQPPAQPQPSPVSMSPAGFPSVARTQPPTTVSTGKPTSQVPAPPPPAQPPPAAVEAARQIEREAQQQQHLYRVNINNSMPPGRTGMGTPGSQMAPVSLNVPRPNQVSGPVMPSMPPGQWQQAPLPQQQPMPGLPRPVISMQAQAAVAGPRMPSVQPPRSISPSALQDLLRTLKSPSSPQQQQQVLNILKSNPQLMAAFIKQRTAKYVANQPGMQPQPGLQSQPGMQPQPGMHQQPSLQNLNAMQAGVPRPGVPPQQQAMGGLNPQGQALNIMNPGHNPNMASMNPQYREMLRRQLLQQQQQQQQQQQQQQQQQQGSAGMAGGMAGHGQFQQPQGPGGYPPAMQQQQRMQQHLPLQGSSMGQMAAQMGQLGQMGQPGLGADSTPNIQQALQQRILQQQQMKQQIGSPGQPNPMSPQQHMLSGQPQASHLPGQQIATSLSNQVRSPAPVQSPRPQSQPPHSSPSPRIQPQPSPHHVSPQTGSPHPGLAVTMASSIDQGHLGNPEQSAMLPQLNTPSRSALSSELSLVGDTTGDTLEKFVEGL

binding result (CBP): binds | binding result (p300): binds
B1: SOX7 fused to BioID2 (BirA from Aquifex aeolicus) and FLAG (other, human;Aquifex aeolicus, UniProt Q9BT81 1-388, looked up)
chain: MASLLGAYPWPEGLECPALDAELSDGQSPPAVPRPPGDKGSESRIRRPMNAFMVWAKDERKRLAVQNPDLHNAELSKMLGKSWKALTLSQKRPYVDEAERLRLQHMQDYPNYKYRPRRKKQAKRLCKRVDPGFLLSSLSRDQNALPEKRSGSRGALGEKEDRGEYSPGTALPSLRGCYHEGPAGGGGGGTPSSVDTYPYGLPTPPEMSPLDVLEPEQTFFSSPCQEEHGHPRRIPHLPGHPYSPEYAPSPLHCSHPLGSLALGQSPGVSMMSPVPGCPPSPAYYSPATYHPLHSNLQAHLGQLSPPPEHPGFDALDQLSQVELLGDMDRNEFDQYLNTPGHPDSATGAMALSGHVPVSQVTPTGPTETSLISVLADATATYYNSYSVS
notes: Tetracycline-inducible bait in HEK293 Flp-In T-REx cells; not shown: BioID2 biotin ligase (BirA from Aquifex aeolicus), C-terminal tag

binding result [1]: binds
B2: MTF2/PCL2 (other, human, UniProt Q9Y483 1-593, looked up)
chain: MRDSTGAGNSLVHKRSPLRRNQKTPTSLTKLSLQDGHKAKKPACKFEEGQDVLARWSDGLFYLGTIKKINILKQSCFIIFEDSSKSWVLWKDIQTGATGSGEMVCTICQEEYSEAPNEMVICDKCGQGYHQLCHTPHIDSSVIDSDEKWLCRQCVFATTTKRGGALKKGPNAKALQVMKQTLPYSVADLEWDAGHKTNVQQCYCYCGGPGDWYLKMLQCCKCKQWFHEACVQCLQKPMLFGDRFYTFICSVCSSGPEYLKRLPLQWVDIAHLCLYNLSVIHKKKYFDSELELMTYINENWDRLHPGELADTPKSERYEHVLEALNDYKTMFMSGKEIKKKKHLFGLRIRVPPVPPNVAFKAEKEPEGTSHEFKIKGRKASKPISDSREVSNGIEKKGKKKSVGRPPGPYTRKMIQKTAEPLLDKESISENPTLDLPCSIGRTEGTAHSSNTSDVDFTGASSAKETTSSSISRHYGLSDSRKRTRTGRSWPAAIPHLRRRRGRLPRRALQTQNSEIVKDDEGKEDYQFDELNTEILNNLADQELQLNHLKNSITSYFGAAGRIACGEKYRVLARRVTLDGKVQYLVEWEGATAS

binding result [2]: binds
B3: ELK1 (other, human, UniProt P19419 1-428, looked up)
chain: MDPSVTLWQFLLQLLREQGNGHIISWTSRDGGEFKLVDAEEVARLWGLRKNKTNMNYDKLSRALRYYYDKNIIRKVSGQKFVYKFVSYPEVAGCSTEDCPPQPEVSVTSTMPNVAPAAIHAAPGDTVSGKPGTPKGAGMAGPGGLARSSRNEYMRSGLYSTFTIQSLQPQPPPHPRPAVVLPSAAPAGAAAPPSGSRSTSPSPLEACLEAEEAGLPLQVILTPPEAPNLKSEELNVEPGLGRALPPEVKVEGPKEELEVAGERGFVPETTKAEPEVPPQEGVPARLPAVVMDTAGQAGGHAASSPEISQPQKGRKPRDLELPLSPSLLGGPGPERTPGSGSGSGLQAPGPALTPSLLPTHTLTPVLLTPSSLPPSIHFWSTLSPIAPRSPAKLSFQFPSSGSAQVHIPSISVDGLSTPVVLSPGPQKP
